Measurements published in patent US20050196404A1.

Columns and labels:
[1] = target: E-hsp60 SCT (HLA-E SCT harboring the hsp60-derived peptide …) (human); assay: flow cytometry, stably transfected LLC-PK1 cells
[2] = target: E-Cw*03 SCT (HLA-E single chain trimer with the peptide …) (human); assay: flow cytometry, stably transfected LLC-PK1 cells
[3] = target: HLA-E SCD (HLA-E single chain dimer) (human); assay: flow cytometry, stably transfected LLC-PK1 cells
[4] = target: E-Cw*03 SCT (HLA-E single chain trimer with the peptide …) (human); assay: flow cytometry, sorted E-Cw*03 SCT LLC-PK1 stable transfectants

fold less staining than E-Cw*03 SCT [1] [fold] | Substance | mean fluorescent intensity (MFI) [2] [MFI] | mean fluorescent intensity (MFI) [3] [MFI] | percent of cells stained [4] [%]
4 to 5 | HLA-E-specific mAb MEM-E/6 (antibody) |  |  | 
 | HLA-E-specific mAb 3D12 (antibody) | 375 | 62 | 100
